Experimental findings from doi:10.1101/2024.09.11.612445 (bioRxiv, 2024) are described below.

The target of experiment [1] is T1, recombinant CSTF3 21-549 (human, UniProt Q12996 21-549).
T1 sequence (looked up): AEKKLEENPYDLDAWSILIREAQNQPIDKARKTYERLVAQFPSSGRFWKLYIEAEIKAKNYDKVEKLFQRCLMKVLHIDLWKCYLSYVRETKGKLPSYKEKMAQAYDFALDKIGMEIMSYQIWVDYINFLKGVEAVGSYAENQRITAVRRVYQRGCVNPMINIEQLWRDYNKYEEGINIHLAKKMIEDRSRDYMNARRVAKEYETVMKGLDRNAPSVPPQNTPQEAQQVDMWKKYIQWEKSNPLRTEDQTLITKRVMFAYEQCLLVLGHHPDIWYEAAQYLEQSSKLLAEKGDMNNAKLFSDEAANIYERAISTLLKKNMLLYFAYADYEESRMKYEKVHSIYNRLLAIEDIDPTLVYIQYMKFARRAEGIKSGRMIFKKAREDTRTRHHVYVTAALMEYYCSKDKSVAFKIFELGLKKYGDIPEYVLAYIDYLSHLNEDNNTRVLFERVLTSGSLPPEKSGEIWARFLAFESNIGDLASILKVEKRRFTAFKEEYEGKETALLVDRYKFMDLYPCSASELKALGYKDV
Nature of the experiment: ITC. (In ITC the heat of successive injections is recorded.)

The target of experiment [2] is T1, recombinant CSTF3 21-549. Nature of the experiment: pull-down.

As to SPTVDDEEEMLYGDS (peptide, UniProt Q10570 737-751, looked up) [CPSF1 737-751 wild-type peptide], the binding result with recombinant CSTF3 21-549 [1] is given as “binds”.

B1: GST-WDR33 431-485 wild-type (domain or fragment, human, UniProt Q9C0J8 431-485, looked up)
chain: DDLEPNSLAVIPGMGIPEQLKLAMEQEQMGKDESNEIEMTIPGLDWGMEEVMQKD
As for B1, in the experiment with recombinant CSTF3 21-549 [2], the binding result was “binds”.
